Data on one substance can be found in publication PMC2937035.

Holding throughout (experiment): protein microarray
What all share (settings): Protein microarray binding buffer, salt, pH and temperature not given in the material

In data set [1] the test system is Khd1 (Hek2) (Saccharomyces cerevisiae).
The subject of data set [2] is Gcy1 (Saccharomyces cerevisiae).
The subject of data set [3] is Rrp5 (Saccharomyces cerevisiae).
Data set [4] has as its system Ydl124w (Saccharomyces cerevisiae).
Data set [5] concerns She2 (Saccharomyces cerevisiae).
Data set [6] relates to Npl3 (Saccharomyces cerevisiae).
For data set [7], the system named is Scp160 (Saccharomyces cerevisiae).
The test system of data set [8] is Mdh3 (Saccharomyces cerevisiae).
Data set [9] deals with Pcs60 (Saccharomyces cerevisiae).

For the substance ASH1 mRNA, the binding signal (normalized mean signal (Cy3); Cy5 24.0) in [1] turned out to be 3.4. Further, the binding signal (normalized mean signal (Cy3); Cy5 19.6) in data set [2] amounted to 8.9. Moreover, the figures for the binding signal (normalized mean signal (Cy3); Cy5 14.6) in data set [3] and in [4] were 3.8 and 11.9, respectively. The binding signal (normalized mean signal (Cy3); Cy5 17.8) in data set [5] was found to be 17.1. In addition, in data set [6], the binding signal (normalized mean signal (Cy3); Cy5 153.8) is 7.1. For the same substance, the binding signal (normalized mean signal (Cy3); Cy5 117.7) in data set [7] worked out at 2.9. In [8], the binding signal (normalized mean signal (Cy3); Cy5 60.2) turned out to be 2.9. The binding signal (normalized mean signal (Cy3); Cy5 89.8) in data set [9] was found to be 3.7.
